Data published in patent publication US20160369006A1 (published 2016).

Molecular target: WT1 peptide … presented by HLA-A0201 (human;)
Test: 125I-labeled antibody saturation cell binding; JMN cells

B1: ESK1 wildtype IgG1 (antibody, V domains shown)
VH: QMQLVQSGAEVKEPGESLRISCKGSGYSFTNFWISWVRQMPGKGLEWMGRVDPGYSYSTYSPSFQGHVTISADKSTSTAYLQWNSLKASDTAMYYCARVQYSGYYDWFDPWGQGTLVTVSS
VL: not shown
- Kd: 200 pM
